Experimental data as given in patent US10202610B2, “Recombinant K1-5 bacteriophages and uses thereof” (priority 2017, dated 2019).

B1: sgRNAs 1112+1122: pair of single guide RNAs, SEQ ID NO: 18 and 19, targeting the K1-5 phage genome with Cas9 (nucleic acid)
guide 1: UAUAUUAUACCAGAGAGGCGGUUUUAGAGCUAGAAAUAGCAAGUUAAAAUAAGGCUAGUCCGUUAUCAACUUGAAAAAGUGGCACCGAGUCGGUGCUUUUUUU
guide 2: GAAGUUCUAAGGAGAUAACAGUUUUAGAGCUAGAAAUAGCAAGUUAAAAUAAGGCUAGUCCGUUAUCAACUUGAAAAAGUGGCACCGAGUCGGUGCUUUUUUU
modifications: further chemistry not given here
B2: sgRNAs 86+89: pair of single guide RNAs, SEQ ID NO: 16 and 17, targeting the K1-5 phage genome with Cas9 (nucleic acid)
guide 1: ACUAAAUGAGGAUUAAAUCAGUUUUAGAGCUAGAAAUAGCAAGUUAAAAUAAGGCUAGUCCGUUAUCAACUUGAAAAAGUGGCACCGAGUCGGUGCUUUUUUU
guide 2: UUACUCUGAUGCACUACAUGGUUUUAGAGCUAGAAAUAGCAAGUUAAAAUAAGGCUAGUCCGUUAUCAACUUGAAAAAGUGGCACCGAGUCGGUGCUUUUUUU
modifications: further chemistry not given here

System: K1-5 phage
Assay: Plaquing efficiency of K1-5 phage on K1 E. coli strains with inducible CRISPR-Cas9 and sgRNAs targeting the phage genome
Assay type: cell-based, K1-5 bacteriophage
Conditions: K1-5 phage plated on strains expressing the sgRNAs, in the absence of homology for repair
Experimental: K1 E. coli strains were generated for cleaving and recombining at locations specified by either sgRNAs 86+89 or sgRNAs 1112+1122. Cells were maintained with 50 μg/mL kanamycin (for the CRISPR expression vector) and 10 μg/mL gentamicin (for the recombination expression vector). Cells were grown while shaking at 37° C. to OD600˜0.6 and were then subjected to various induction treatments. Cultures were either (1) not induced, (2) induced with 100 ng/mL anhydrotetracycline (aTc) to activate Cas9 expression, (3) induced with 0.2% arabinose to activate lambda red operon expression, or (4) induced with both 100 ng/mL anhydrotetracycline and 0.2% arabinose to activate expression of Cas9 and lambda red genes. Induction was carried out for 2 hours while shaking at 37° C.
K1-5 lysate was then used to infect 200 μL cultures of each bacterial strain/induction condition at 10^6, 10^4, and 10^2 PFU. This infection was given 10 minutes for the phage to adsorb before being added to 3 mL of 0.65% LB top agar. The appropriate inducer was spiked into each top agar tube to maintain induction. The top agar was then spread over an LB agar plate containing the appropriate antibiotics to maintain the CRISPR and recombination expression vectors. The agar plates were incubated in an airtight container for approximately 16 hours at 37° C. […]

Row | Molecule | reduction in plaquing efficiency
1 | B1 | 2105 fold
2 | B2 | ~1.9×10^6 fold
